Test results published in publication PMC7142073, “Acclimation of bacterial cell state for high-throughput enzyme engineering using a DmpR-dependent transcriptional activation system” (Scientific Reports, 2020).

Substrate: N[C@@H](Cc1ccc(O)cc1)C(=O)O
Assay: purified protein
Format: biochemical, Symbiobacterium sp. SC-1
Details: 50 mM potassium phosphate, 50 µM PLP; pH 8.0; 60.0 °C

B1: thermostable TPL (TTPL) (Symbiobacterium sp. SC-1) (protein)
chain: MQRPWAEPYKIKAVEPIRMTTREYREQAIREAGYNTFLLRSEDVYIDLLTDSGTNAMSDRQWGALMMGDEAYAGARSFFRLEEAVREIYGFKYVVPTHQGRGAEHLISRILIKPGDYIPGNMYFTTTRTHQELQGGTFVDVIIDEAHDPQANHPFKGNVDIAKFEALIDRVGADKIPYINVALTVNMAGGQPVSMANLREVRKVCDRHGIRMWSDATRAVENAYFIKEREEGYQDKPVREILKEMMSYFDGCTMSGKKDCLVNIGGFLAMNEEWILQKAREQVVIFEGMPTYGGLAGRDMEAIAQGIYEMVDDDYIAHRIHQVRYLGEQLLEAGIPIVQPIGGHAVFLDARAFLPHIPQDQFPAQALAAALYVDSGVRAMERGIVSAGRNPQTGEHNYPKLELVRLTIPRRVYTDRHMDVVAYSVKHLWKERDTIRGLRMVYEPPTLRFFTARFEPIS
notes: His-tagged, pSHCE plasmid, expressed in E. coli DH5alpha with pGESS; cloning primer starts … (M-Q-R-P)
  Km: 270 ± 10 µM
  kcat: 0.15 ± 0.01 s⁻¹
  kcat/Km: 550 ± 10 M⁻¹ s⁻¹
